In patent publication US8771644B2, “Imaging probes” (Sanofi, priority 2007, dated 2014):

Tests used:
Format in all cases: biochemical
[1] = substrate: CN(C)c1ccc2c(c1)Oc1cc(N(C)C)ccc1C21OC(=O)c2cc(C(=O)NCC[C@H](NC(=O)[C@H](CC3CCCCC3)NC(=O)N3CCOCC3)C(=O)NCCNC(=O)c3ccc(-c4c5ccc(=O)cc-5oc5cc(O)ccc45)c(C(=O)O)c3)ccc21; test: in vitro activity assay (fluorescence, substrate cleavage) with Cath K; settings: other: Cath K; measurement performed at pH 5.5; pH 5.5; 37.0 °C
Experimental: (§1) […] The substrates were solved in DMSO and added to enzyme solution with a final concentration of 50 μM.
(§2) Fluorescence was measured with an Tecan SAFIRE II spectrometer (excitation wavelength: 336 nm; emission wavelength: 490 nm; excitation band: 10.0 nm; emission band: 10.0 nm; amplification (manual): 90).

[2] = substrate: CN(C)c1ccc(/N=N/c2ccc(C(=O)NCCCC[C@H](NC(=O)[C@H](CCC(=O)NCCNc3cccc4c(S(=O)(=O)O)cccc34)NC(=O)[C@H](CC3CCCCC3)NC(=O)N3CCOCC3)C(=O)O)cc2)cc1; test: as above; settings: other: Cath K; measurement performed at pH 7.5; pH 7.5; 37.0 °C
Experimental: as §1, §2

[3] = substrate: CN(C)c1ccc(/N=N/c2ccc(C(=O)NCCCC[C@H](NC(=O)[C@H](CCC(=O)NCCNc3cccc4c(S(=O)(=O)O)cccc34)NC(=O)[C@H](CC3CCCCC3)NC(=O)N3CCOCC3)C(=O)O)cc2)cc1; test: in vitro activity assay (fluorescence, substrate cleavage) with Cath S; settings: other: Cath S, measurement performed at pH 7.5, 37.0 °C
[4] = substrate: CN(C)c1ccc2c(c1)Oc1cc(N(C)C)ccc1C21OC(=O)c2cc(C(=O)NCC[C@H](NC(=O)[C@H](CC3CCCCC3)NC(=O)N3CCOCC3)C(=O)NCCNC(=O)c3ccc(-c4c5ccc(=O)cc-5oc5cc(O)ccc45)c(C(=O)O)c3)ccc21; test: in vitro activity assay (fluorescence, substrate cleavage) with Papain; settings: other: Papain; measurement performed at pH 5.5; pH 5.5; 37.0 °C
Experimental: as §1, §2

[5] = substrate: CN(C)c1ccc(/N=N/c2ccc(C(=O)NCCCC[C@H](NC(=O)[C@H](CCC(=O)NCCNc3cccc4c(S(=O)(=O)O)cccc34)NC(=O)[C@H](CC3CCCCC3)NC(=O)N3CCOCC3)C(=O)O)cc2)cc1; test: as above; settings: other: Papain; measurement performed at pH 7.5; pH 7.5; 37.0 °C
Experimental: as §1, §2

B1: Cath K (Homo sapiens) (protein)
chain: APDSVDYRKKGYVTPVKNQGQCGSCWAFSSVGALEGQLKKKTGKLLNLSPQNLVDCVSENDGCGGGYMTNAFQYVQKNRGIDSEDAYPYVGQEESCMYNPTGKAAKCRGYREIPEGNEKALKRAVARVGPVSVAIDASLTSFQFYSKGVYYDESCNSDNLNHAVLAVGYGIQKGNKHWIIKNSWGENWGNKGYILMARNKNNACGIANLASFPKM
Km [1]: 35 µM
Vmax [1]: 0.438 µmol/min
kcat [1]: 0.192 s⁻¹
Km [2]: 190 µM
Vmax [2]: 0.018 µmol/min
kcat/Km [2]: 27 M⁻¹ s⁻¹

B2: Cath S (Homo sapiens) (protein)
chain: LPDSVDWREKGCVTEVKYQGSCGACWAFSAVGALEAQLKLKTGKLVSLSAQNLVDCSTEKYGNKGCNGGFMTTAFQYIIDNKGIDSDASYPYKAMDQKCQYDSKYRAATCSKYTELPYGREDVLKEAVANKGPVSVGVDARHPSFFLYRSGVYYEPSCTQNVNHGVLVVGYGDLNGKEYWLVKNSWGHNFGEEGYIRMARNKGNHCGIASFPSYPEI
Km [3]: 32 µM
Vmax [3]: 0.144 µmol/min
kcat [3]: 0.11 s⁻¹
kcat/Km [3]: 3260 M⁻¹ s⁻¹

B3: Papain (Carica papaya) (protein)
chain: IPEYVDWRQKGAVTPVKNQGSCGSCWAFSAVVTIEGIIKIRTGNLNEYSEQELLDCDRRSYGCNGGYPWSALQLVAQYGIHYRNTYPYEGVQRYCRSREKGPYAAKTDGVRQVQPYNEGALLYSIANQPVSVVLEAAGKDFQLYRGGIFVGPCGNKVDHAVAAVGYGPNYILIKNSWGTGWGENGYIRIKRGTGNSYGVCGLYTSSFYPVKN
Km [4]: 6.3 µM
Vmax [4]: 0.0024 µmol/min
kcat [4]: 0.002 s⁻¹
Km [5]: 520 µM
Vmax [5]: 0.096 µmol/min
kcat [5]: 0.1 s⁻¹
kcat/Km [5]: 273 M⁻¹ s⁻¹
